# Data published in IntAct's records for PubMed 14673118.
# B1: Thioredoxin (Synechocystis sp. (strain PCC 6803 / Kazusa)), P52231 (parent)
# chain: MSATPQVSDASFKEDVLDSELPVLVDFWAPWCGPCRMVAPVVDEISQQYEGKVKVVKLNTDENPNTASQYGIRSIPTLMIFKGGQRVDMVVGAVPKTTLASTLEKYL
# partner: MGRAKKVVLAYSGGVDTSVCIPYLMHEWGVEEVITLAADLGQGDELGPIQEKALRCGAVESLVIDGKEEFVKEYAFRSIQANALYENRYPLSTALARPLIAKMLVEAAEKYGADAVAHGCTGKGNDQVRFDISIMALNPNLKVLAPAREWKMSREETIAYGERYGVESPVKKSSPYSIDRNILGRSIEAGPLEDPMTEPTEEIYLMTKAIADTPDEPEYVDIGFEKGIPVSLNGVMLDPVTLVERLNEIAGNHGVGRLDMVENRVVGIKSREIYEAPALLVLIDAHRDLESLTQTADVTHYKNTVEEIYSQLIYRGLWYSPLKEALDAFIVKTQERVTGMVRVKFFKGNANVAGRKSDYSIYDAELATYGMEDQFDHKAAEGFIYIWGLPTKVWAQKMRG
# B2: Thioredoxin (Synechocystis sp. (strain PCC 6803 / Kazusa)), P52231 (parent)
# chain: B1 chain
# partner: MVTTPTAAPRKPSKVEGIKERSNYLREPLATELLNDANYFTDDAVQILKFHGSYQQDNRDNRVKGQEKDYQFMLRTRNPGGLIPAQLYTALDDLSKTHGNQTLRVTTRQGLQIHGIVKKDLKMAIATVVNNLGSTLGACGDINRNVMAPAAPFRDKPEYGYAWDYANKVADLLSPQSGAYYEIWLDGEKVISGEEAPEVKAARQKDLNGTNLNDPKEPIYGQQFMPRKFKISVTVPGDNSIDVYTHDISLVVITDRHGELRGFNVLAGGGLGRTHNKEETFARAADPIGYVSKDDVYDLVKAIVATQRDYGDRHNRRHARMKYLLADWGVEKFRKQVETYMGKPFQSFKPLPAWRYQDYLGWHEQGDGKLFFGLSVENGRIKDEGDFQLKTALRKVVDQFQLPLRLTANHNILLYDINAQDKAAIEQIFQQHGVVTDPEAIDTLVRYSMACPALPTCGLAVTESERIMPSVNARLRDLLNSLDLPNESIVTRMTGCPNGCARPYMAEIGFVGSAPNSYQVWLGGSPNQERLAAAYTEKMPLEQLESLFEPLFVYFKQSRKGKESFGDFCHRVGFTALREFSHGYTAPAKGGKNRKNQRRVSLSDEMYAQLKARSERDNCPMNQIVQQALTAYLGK
# B3: Thioredoxin (Synechocystis sp. (strain PCC 6803 / Kazusa)), P52231 (parent)
# chain: B1 chain
# B4: Thioredoxin (Synechocystis sp. (strain PCC 6803 / Kazusa)), P52231 (parent)
# chain: B1 chain
# partner: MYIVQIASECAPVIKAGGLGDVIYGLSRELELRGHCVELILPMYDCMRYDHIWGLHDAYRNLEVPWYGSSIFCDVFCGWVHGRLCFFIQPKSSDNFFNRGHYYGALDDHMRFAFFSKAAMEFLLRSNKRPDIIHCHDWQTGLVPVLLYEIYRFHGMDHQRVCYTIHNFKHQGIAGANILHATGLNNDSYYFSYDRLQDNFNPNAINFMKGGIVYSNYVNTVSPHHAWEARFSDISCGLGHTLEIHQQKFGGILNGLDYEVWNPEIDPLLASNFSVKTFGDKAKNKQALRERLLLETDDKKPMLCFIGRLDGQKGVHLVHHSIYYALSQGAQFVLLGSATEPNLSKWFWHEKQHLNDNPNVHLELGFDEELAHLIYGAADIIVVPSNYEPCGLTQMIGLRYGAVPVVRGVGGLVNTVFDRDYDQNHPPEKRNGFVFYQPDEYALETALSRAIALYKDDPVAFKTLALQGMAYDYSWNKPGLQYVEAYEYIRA
# B5: Thioredoxin (Synechocystis sp. (strain PCC 6803 / Kazusa)), P52231 (parent)
# chain: B1 chain
# partner: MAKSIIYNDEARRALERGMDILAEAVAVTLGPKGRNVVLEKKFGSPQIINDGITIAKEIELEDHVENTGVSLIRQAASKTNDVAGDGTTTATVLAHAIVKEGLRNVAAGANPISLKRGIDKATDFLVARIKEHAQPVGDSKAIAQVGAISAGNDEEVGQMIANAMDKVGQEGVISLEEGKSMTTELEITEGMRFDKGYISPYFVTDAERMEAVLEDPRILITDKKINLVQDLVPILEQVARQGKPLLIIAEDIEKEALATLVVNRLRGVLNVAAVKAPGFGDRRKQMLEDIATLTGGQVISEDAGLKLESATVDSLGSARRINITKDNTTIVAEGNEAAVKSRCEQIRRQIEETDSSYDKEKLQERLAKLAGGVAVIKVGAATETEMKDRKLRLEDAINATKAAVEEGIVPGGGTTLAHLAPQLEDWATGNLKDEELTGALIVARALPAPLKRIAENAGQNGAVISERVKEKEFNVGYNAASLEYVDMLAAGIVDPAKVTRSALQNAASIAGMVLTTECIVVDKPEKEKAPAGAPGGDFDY
# B6: Thioredoxin (Synechocystis sp. (strain PCC 6803 / Kazusa)), P52231 (parent)
# chain: B1 chain
# partner: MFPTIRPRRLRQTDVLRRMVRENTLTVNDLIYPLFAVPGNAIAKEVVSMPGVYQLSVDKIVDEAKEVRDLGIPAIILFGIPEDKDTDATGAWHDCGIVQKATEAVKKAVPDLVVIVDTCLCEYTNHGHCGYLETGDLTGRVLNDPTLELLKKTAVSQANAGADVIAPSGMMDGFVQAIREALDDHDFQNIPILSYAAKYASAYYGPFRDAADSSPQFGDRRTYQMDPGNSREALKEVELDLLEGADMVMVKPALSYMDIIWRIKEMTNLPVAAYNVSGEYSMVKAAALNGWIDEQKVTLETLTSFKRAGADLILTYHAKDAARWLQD
# B7: Thioredoxin (Synechocystis sp. (strain PCC 6803 / Kazusa)), P52231 (parent)
# chain: B1 chain
# partner: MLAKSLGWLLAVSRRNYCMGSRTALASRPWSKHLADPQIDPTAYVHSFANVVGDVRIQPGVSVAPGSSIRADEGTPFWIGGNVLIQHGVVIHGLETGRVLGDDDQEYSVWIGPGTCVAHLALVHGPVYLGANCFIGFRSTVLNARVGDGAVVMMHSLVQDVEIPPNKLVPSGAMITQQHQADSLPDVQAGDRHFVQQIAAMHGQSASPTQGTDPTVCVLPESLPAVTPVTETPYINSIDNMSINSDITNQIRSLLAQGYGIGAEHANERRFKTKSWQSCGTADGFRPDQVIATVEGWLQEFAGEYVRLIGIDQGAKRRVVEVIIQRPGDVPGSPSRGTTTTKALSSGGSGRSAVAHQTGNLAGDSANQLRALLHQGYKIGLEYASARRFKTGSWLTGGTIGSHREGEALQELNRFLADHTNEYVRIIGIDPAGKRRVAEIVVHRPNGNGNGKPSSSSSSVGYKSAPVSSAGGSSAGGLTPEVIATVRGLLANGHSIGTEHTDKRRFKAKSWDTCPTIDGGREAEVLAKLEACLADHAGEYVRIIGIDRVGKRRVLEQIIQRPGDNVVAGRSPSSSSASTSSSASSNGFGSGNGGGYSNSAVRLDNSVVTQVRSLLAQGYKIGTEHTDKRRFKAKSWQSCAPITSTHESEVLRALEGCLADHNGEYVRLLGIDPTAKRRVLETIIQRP
# Variants of: B1
# Settings: with assy_syny3 argG
row,Variant,effect of a mutation on the interaction
1,C35S,increasing interaction

# Variants of: B2
# Settings: with sir_syny3 sir
row,Variant,effect of a mutation on the interaction
1,C35S,increasing interaction

# Variants of: B3
# Settings: with glts_syny3 gltS
row,Variant,effect of a mutation on the interaction
1,C35S,increasing interaction

# Variants of: B3
# Settings: with rbl_syny3 cbbL
row,Variant,effect of a mutation on the interaction
1,C35S,increasing interaction

# Variants of: B3
# Settings: with eftu_syny3 tuf
row,Variant,effect of a mutation on the interaction
1,C35S,increasing interaction

# Variants of: B3
# Settings: with gltb_syny3 gltB
row,Variant,effect of a mutation on the interaction
1,C35S,increasing interaction

# Variants of: B3
# Settings: with apce_syny3 apcE
row,Variant,effect of a mutation on the interaction
1,C35S,increasing interaction

# Variants of: B4
# Settings: with glga2_syny3 glgA2, P72623
row,Variant,effect of a mutation on the interaction
1,C35S,increasing interaction

# Variants of: B5
# Settings: with ch601_syny3 groEL1, Q05972
row,Variant,effect of a mutation on the interaction
1,C35S,increasing interaction

# Variants of: B6
# Settings: with hem2_syny3 hemB
row,Variant,effect of a mutation on the interaction
1,C35S,increasing interaction

# Variants of: B7
# Settings: with ccmm_syny3 ccmM
row,Variant,effect of a mutation on the interaction
1,C35S,increasing interaction
